Measurements published in patent US20180356429A1 (Genentech, published 2018).
Values belong to the binder of their own block, whether it stands above or below them.

What was measured:
[1] = biological target: T1, Recombinant human IL-13 (R&D Systems, MN, catalog no. 213-ILB/CF) (human, UniProt P35225 33-146); experiment: sandwich pair screen, 100 pg/mL recombinant IL-13 against blank, binder is detection Ab 11H4; capture Ab MILR1444A
T1 construct: also called recombinant IL-13

[2] = biological target: T1, Recombinant human IL-13 (R&D Systems, …); experiment: sandwich pair screen, 100 pg/mL recombinant IL-13 against blank, binder is detection Ab 11H4; capture Ab 228B/C
[3] = biological target: T2, native IL-13 in human serum (human, UniProt P35225 33-146); experiment: pre-incubation of serum with excess (100 ug/mL) capture antibody for 1 h at room temperature, then IMPACT IL-13 sandwich assay
T2 construct: Endogenous IL-13 in serum of healthy volunteers and of patients with asthma, IPF or atopic dermatitis; also called serum IL-13; endogenous IL-13
T2 sequence (P35225 other isoform, or with tags, fused parts or gaps): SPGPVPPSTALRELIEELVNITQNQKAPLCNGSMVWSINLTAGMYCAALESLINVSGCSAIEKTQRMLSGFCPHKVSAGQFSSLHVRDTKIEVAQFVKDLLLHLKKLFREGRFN

T1 sequence (P35225 other isoform, or with tags, fused parts or gaps): as above

positive/negative ratio [1]: 22800
positive/negative ratio [2]: 317
B1: 11H4 (anti-IL-13 mu11H4) (antibody, IgG1, V domains shown)
VH: QVTLKESGPGILQPSQTLSLTCSFSGFSLSTSDMGVGWIRQPSGKGLEWLAHIWWDDVKRYNPALKSRLTISKDTSSSQVFLKIASVDTADTATYYCARIGTNYGYDGLFDYWGQGTTLTVSS
VL: DIVLTQSPASLAVSLGQRATISCRASQSVSTSSYSYMNWYQQTPGQPPKLLIKYASNLESGIPARFSGSGSGTDFTLNIHPVEEEDTATYYCQHSWEIPYTFGGGT
notes: Murine antibody; In the IMPACT IL-13 assay it was used as full-length IgG1 labelled with digoxigenin

binding result [3]: binds
B2: biotinylated lebrikizumab F(ab')2 (other)
VH: VTLRESGPALVKPTQTLTLTCTVSGFSLSAYSVNWIRQPPGKALEWLAMIWGDGKIVYNSALKSRLTISKDTSKNQVVLTMTNMDPVDTATYYCAGDGYYPYAMDNWGQGSLVTVSS
VL: DIVMTQSPDSLSVSLGERATINCRASKSVDSYGNSFMHWYQQKPGQPPKLLIYLASNLESGVPDRFSGSGSGTDFTLTISSLQAEDVAVYYCQQNNEDPRTFGGGTKVEIK
modifications: biotinylated (sites not given)
notes: F(ab')2 fragment of lebrikizumab, the capture reagent of the IMPACT IL-13 assay; also called capture antibody; first antibody
